Laboratory results taken from publication PMC8941942, “Functional and Structural Characterization of Diverse NfsB Chloramphenicol Reductase Enzymes from Human Pathogens” (Microbiology Spectrum, 2022).

Legend:
Ng FA1090 NfsB = molecular target: T1, Ng FA1090 NfsB (Neisseria gonorrhoeae, UniProt Q5F9K5); type: cell-based; conditions: 100 µg/mL chloramphenicol, MDG medium, 37°C; compared with empty vector
T1 construct: gene NGO_0388

[1] = system: NC(=O)C1=CN([C@@H]2O[C@H](COP(=O)(O)OP(=O)(O)OC[C@H]3O[C@@H](n4cnc5c(N)ncnc54)[C@H](OP(=O)(O)O)[C@@H]3O)[C@@H](O)[C@H]2O)C=CC1; assay: purified protein; conditions: apparent, 1 mM chloramphenicol, 1 µM FMN, 50 mM Tris pH 8, ~23°C
[2] = system: O=C(N[C@H](CO)[C@H](O)c1ccc([N+](=O)[O-])cc1)C(Cl)Cl; assay: purified protein; conditions: apparent, 1 mM NADPH, 1 µM FMN, 50 mM Tris pH 8, ~23°C

T1 sequence (Q5F9K5 1-221): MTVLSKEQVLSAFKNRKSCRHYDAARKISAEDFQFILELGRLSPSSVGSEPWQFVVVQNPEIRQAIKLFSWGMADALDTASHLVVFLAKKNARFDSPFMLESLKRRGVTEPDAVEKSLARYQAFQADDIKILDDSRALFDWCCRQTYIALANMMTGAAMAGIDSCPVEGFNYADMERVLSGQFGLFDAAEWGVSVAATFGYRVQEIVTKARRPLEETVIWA

## O=C(N[C@H](CO)[C@H](O)c1ccc([N+](=O)[O-])cc1)C(Cl)Cl [chloramphenicol]
Ng FA1090 NfsB
  Bratton-Marshall assay of resting E. coli expressing nfsB: Es. coli strains expressing H. influenzae or Neisseria nfsB genes showed robust signal

## Hi 86-028NP NfsB (Haemophilus influenzae 86-028NP)
[1]
  Km: 21 ± 2 µM
  kcat: 9.9 ± 0.6 s⁻¹
  kcat/Km: 478000 M⁻¹ s⁻¹
[2]
  Km: 200 ± 40 µM
  kcat: 8.7 ± 0.9 s⁻¹
  kcat/Km: 44500 M⁻¹ s⁻¹

## Hi KW20 NfsB (Haemophilus influenzae Rd KW20)
[1]
  Km: 49 ± 6 µM
  kcat: 13 ± 0.5 s⁻¹
  kcat/Km: 278000 M⁻¹ s⁻¹
[2]
  Km: 260 ± 20 µM
  kcat: 14 ± 0.3 s⁻¹
  kcat/Km: 55500 M⁻¹ s⁻¹

## Nm Z2491 NfsB (Neisseria meningitidis Z2491)
[1]
  Km: 22 ± 4 µM
  kcat: 8.2 ± 0.3 s⁻¹
  kcat/Km: 388000 M⁻¹ s⁻¹
[2]
  Km: 1,300 ± 800 μM
  kcat: 8.9 ± 3 s⁻¹
  kcat/Km: 8120 M⁻¹ s⁻¹
